Where two headings read alike, the source gives them in different places. Bridges are numbered along the chain shown (N, C = ends). Where no end group is shown, it is not given here.
B1: peptide 1 (peptide)
chain: KKPVPIIYCNRRTGKCQRM
modifications: disulfide 9-16 (inferred)
B2: Thanatin (peptide)
peptide: GSKKPVPIIYCNRRTGKCQRM
B3: mLptA (E. coli), LptA(25-185) E39V M47A R76A (domain or fragment)
chain: GAFAVTGDTDQPIHIVSDQQSLDAQGNVVTFTGNVIVTQGTIKINADKVVVTAPGGEQGKEVIDGYGKPATFYQMQDNGKPVEGHASQMHYELAKDFVVLTGNAYLQQVDSNIKGDKITYLVKEQKMQAFSDKGKRVTTVLVPSQLQDKNNKGQTPAQKKGN

Experiments:
Test in all cases: FP
K. pneumoniae LptAm^Q62L = K. pneumoniae LptAm^Q62L (K. pneumoniae (ATCC 13883))
LptAm^Q62L (E. coli) [1] = target: T1, LptAm^Q62L (E. coli) (E. coli (ATCC 25922))
T1 chain: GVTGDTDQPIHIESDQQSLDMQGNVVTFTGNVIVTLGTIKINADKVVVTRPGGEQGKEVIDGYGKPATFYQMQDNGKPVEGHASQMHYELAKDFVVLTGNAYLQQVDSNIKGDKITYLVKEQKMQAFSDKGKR

K. pneumoniae LptAm [2] = target: T2, K. pneumoniae LptAm (K. pneumoniae (ATCC 13883))
T2 chain: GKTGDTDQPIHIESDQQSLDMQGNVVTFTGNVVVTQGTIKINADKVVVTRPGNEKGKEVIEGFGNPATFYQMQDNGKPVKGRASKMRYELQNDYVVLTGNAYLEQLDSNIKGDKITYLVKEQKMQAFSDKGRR

[3] = target: T3, LptAm (E. coli), monomeric truncated variant of LptA (E. coli (ATCC 25922))
T3 chain: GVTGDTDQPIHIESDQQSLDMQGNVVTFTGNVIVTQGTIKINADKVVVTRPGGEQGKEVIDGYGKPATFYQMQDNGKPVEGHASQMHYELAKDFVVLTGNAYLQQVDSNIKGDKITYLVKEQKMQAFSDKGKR

LptAm^Q62L (E. coli) [4] = target: T1, LptAm^Q62L (E. coli)
K. pneumoniae LptAm [5] = target: T2, K. pneumoniae LptAm
[6] = target: T3, LptAm (E. coli), monomeric truncated …
LptAm^Q62L (E. coli) [7] = target: T1, LptAm^Q62L (E. coli)
[8] = target: T3, LptAm (E. coli), monomeric truncated …

Row | Binder | IC50 (K. pneumoniae LptAm^Q62L) [nM] | Ki (K. pneumoniae LptAm^Q62L) [nM] | Ki (LptAm^Q62L (E. coli) [1]) [nM] | Ki (K. pneumoniae LptAm [2]) [nM] | Ki [3] [nM] | IC50 (LptAm^Q62L (E. coli) [4]) [nM] | IC50 (K. pneumoniae LptAm [5]) [nM] | IC50 [6] [nM] | IC50 (LptAm^Q62L (E. coli) [7]) [nM] | IC50 [8] [nM]
1 | B1 | 20.8 | 18.2 | 20.5 | 0.9 | 1.1 | 30.4 | 9.6 | 6.6 | – | –
2 | B2 | – | – | – | – | – | 50 | – | – | – | –
3 | B3 | – | – | – | – | – | – | – | – | 102 | 213
